For one protein, Km results are on record in article PMC6085349, “Silkworms suppress the release of green leaf volatiles by mulberry leaves with an enzyme from their spinnerets” (Scientific Reports, 2018).

Substrate in this data set: CC/C=C\C[C@@H](/C=C/C=C\CCCCCCCC(=O)O)OO
As to the kind of experiment: purified protein. In kind it is biochemical, Bombyx mori. Conditions: typical assay 50 mM sodium borate pH 9.0, no cofactor, enzyme inactivates during turnover.

B1: BmFHD (Bombyx mori fatty acid hydroperoxide dehydratase) (Bombyx mori) (protein)
chain: GGLRTTWGVGLGLGTDFFYEIPRSLEEVKSQGWVLTDKADGLPLPSLALYCSEDRILCGFFDETEYVVGLQVSLPVDEVTDIIFDMPTQGFIIWETEVDGELKKFYSIQQYFINEDTLKQSVEDRLSKWDSSKTLQEKSIWVTGFNGTLLEISTVADDIANGDDFTKQACVPWMGRHYYYKMSAKTECKADTLLPWFPIVESGELIATGFISFLKLSNTYKWFEKPSKAAVQFIVPDGPKCLYDLAEDSGLTTMHIYYVNQPWLVSCLWQ
notes: native, purified from middle silk glands (MSG-A) of fifth instar larvae; 289 aa precursor with predicted 19-residue N-terminal signal peptide; 32 kDa on SDS-PAGE; no tag
In the case of B1, the Km came out at 1.13 µM.
